These results are taken from article PMC9606946, “Programmed Aptamer Screening, Characterization, and Rapid Detection for α-Conotoxin MI”.

Sequences and labels used below:
T1: alpha-conotoxin MI (CTX-MI) (Conus magus, UniProt P01521 1-14, disulfide (positions not given here); not fully specified; also: two disulfides as in P01521)
T1 chain: GRCCHPACGKNYSC-NH2

B1: MBMI-02 (ssDNA)
DNA: ATTGGCACTCCACGCATAGGATTTGGGTTTCGGGATAAGGGGCAAAAGGACAGGTTTTGTCCTATGCGTGCTACCGTGAA
B2: MBMI-08 (ssDNA)
DNA: ATTGGCACTCCACGCATAGGCAACGGGGGGGTGGGGAGAGAAGGGTTGAGTGACAATTTGCCTATGCGTGCTACCGTGAA
B3: MBMI-51 (ssDNA)
DNA: ATTGGCACTCCACGCATAGGAAGGTGGAATCGGAGGGGGTGCTTGGGTGGGGGTGGGATTCCTATGCGTGCTACCGTGAA
B4: MBMI-01 (ssDNA)
DNA: ATTGGCACTCCACGCATAGGTTTGGGGATGGGCAACGGTAAAAAGGGTCAAAAGGCTTTTCCTATGCGTGCTACCGTGAA
B5: MBMI-92 (ssDNA)
DNA: ATTGGCACTCCACGCATAGGCTCGCGGAGGGAGGGGTTTTGGGGGGCGGGATGGTATTGGCCTATGCGTGCTACCGTGAA
B6: MBMI-03 (ssDNA)
DNA: ATTGGCACTCCACGCATAGGGGCGCTTGTGGTGTAAGGGTTGGGTATATGTCGTAATAGGCCTATGCGTGCTACCGTGAA
B7: MBMI-94 (ssDNA)
DNA: ATTGGCACTCCACGCATAGGAGCGGGGTTGGTTTGCGGGAGGGGGGGTGGAGGTAAGCTCCCTATGCGTGCTACCGTGAA
B8: MBMI-22 (ssDNA)
DNA: ATTGGCACTCCACGCATAGGCAAGAAGGGGGAGGGTGGTATGTGTCGGGGGGAGGGGTGGCCTATGCGTGCTACCGTGAA
B9: MBMI-39 (ssDNA)
DNA: ATTGGCACTCCACGCATAGGGTAGGGGATTTAAGGAGGGGCCTTAGGAGGGGGGGGGTAACCTATGCGTGCTACCGTGAA

Where “and” joins values, the source holds several entries; their conditions need not be identical. Equal values may be shown once. Where no end group is shown, it is not given here.

One data set deals with T1, alpha-conotoxin MI (CTX-MI). Nature of the data set: BLI. Particulars: protein: commercial; tags: none; label: biotin.
As for B1, binding was put at a Kd of 2210 nM. On the same count and under the same terms, the same measure for CTCGCGGAGGGAGGGGTTTTGGGGGGCGGGATGGTATTGG (ssDNA) [MBMI-92c]: 1320 nM; for B2: 12000 nM; for B3: 14000 nM. Same read-out and setting: the figure for B4 is 850 nM; for B5 it is 260 nM. Same read-out and setting: the figure for B6 is 3490 nM.

ATTTGGGTTTCGGGATAAGGGGCAAAAGGACAGGTTTTGT (ssDNA) [MBMI-02c] gave a Kd of 1290 nM.

In turn, B7 returned a Kd of 2330 nM. The same measure, in the same setting: the figure for B8 is 21200 nM; for B9 it is 430 nM.

Staying with this data set, now noted: protein: commercial; tags: none; label: biotin; antiparallel G-quadruplex.
Consider TTTGGGGATGGGCAACGGTAAAAAGGGTCAAAAGGCTTTT (structured_DNA) [MBMI-01c], for which the Kd was 870 nM and 729 nM.

Still in this data set, the particulars now being: protein: commercial; tags: none; label: biotin; remaining predicted GQ core A.
TTTGGCCATGGCCAACGGTAAAAAGGCTCAAAACCCTTTT (ssDNA) [M2]: the Kd is 741 nM.

Staying with this data set, now noted: protein: commercial; tags: none; label: biotin; remaining predicted GQ cores A,B.
Take TTTGGGGATGGGCAACGGTAAAAAGGGTCAAAACCCTTTT (ssDNA) [M3]: the Kd is 1560 nM.

The data set is the same for the next values; noted with them: protein: commercial; tags: none; label: biotin; remaining predicted GQ cores C,D.
As for TTTCCGGATGGGCAACGGTAAAAAGGGTCAAAAGGCTTTT (ssDNA) [M1], the Kd is 1520 nM.
